Test [1] deals with GAL4 DB-HDA19 fusion (pDBLeu-HDA19), expressed in MaV203 yeast (yeast; Arabidopsis thaliana) (UniProt P04386). Nature of the test: cell-based or functional assay.
Test [2] addresses tobacco ortholog of the transcription repressor HDA19 (tobacco). Put plainly: cell-based or functional assay.
The mark [3] stands for this setting: scale: % further reduction relative to the other mutants.
The mark [4] stands for this setting: scale: % reduction relative to full-length bnKCP1.

For “GAL4 AD-BnSCL1^146-358 fusion (pPC86-BnSCL1^146-358), expressed in MaV203 yeast”, in test [1], the β-galactosidase activity (lacZ reporter, yeast two-hybrid, CPRG) (% reduction relative to wild type BnSCL1) was > 50.

For the substance “GAL4 AD-BnSCL1^218-438 fusion (pPC86-BnSCL1^218-438), expressed in MaV203 yeast”, in test [1], the β-galactosidase activity (lacZ reporter, yeast two-hybrid, CPRG) (% reduction relative to wild type BnSCL1) was > 50. Also, the β-galactosidase activity (lacZ reporter, yeast two-hybrid, CPRG) in test [1] (setting [3]) was > 50.

In the case of “GAL4 AD-BnSCL1^1-217 fusion (pPC86-BnSCL1^1-217), expressed in MaV203 yeast”, the β-galactosidase activity (lacZ reporter, yeast two-hybrid, CPRG) (% reduction relative to wild type BnSCL1) in test [1] is > 50.

For “GAL4 AD-BnSCL1^1-145 fusion (pPC86-BnSCL1^1-145), expressed in MaV203 yeast”, in test [1], the β-galactosidase activity (lacZ reporter, yeast two-hybrid, CPRG) (% reduction relative to wild type BnSCL1) was > 50. For the same substance, the β-galactosidase activity (lacZ reporter, yeast two-hybrid, CPRG) in test [1] (setting [3]) is > 50.

Take “GAL4 AD-BnSCL1^1-261 fusion (pPC86-BnSCL1^1-261), expressed in MaV203 yeast”: the β-galactosidase activity (lacZ reporter, yeast two-hybrid, CPRG) (% reduction relative to wild type BnSCL1) in test [1] was > 50.

Consider “GAL4 AD-BnSCL1^1-358 fusion (pPC86-BnSCL1^1-358), expressed in MaV203 yeast”, for which the β-galactosidase activity (lacZ reporter, yeast two-hybrid, CPRG) (% reduction relative to wild type BnSCL1) in test [1] was > 50.

On to “GAL4BD-BnSCL1 fusion protein (effector plasmid GAL4-BnSCL1), expressed transiently in tobacco leaves (from UniProt P04386 1-147)”, for which the GUS gene expression (transient assay in bombarded tobacco leaves, fluorometric) in test [2] came to 50 % decrease.

On to “GAL4 AD-bnKCP1^1-160 fusion (pPC86-bnKCP1^1-160), expressed in MaV203 yeast (from UniProt Q84U09 1-160)”, for which, in test [1] (setting [4]), the β-galactosidase activity (lacZ reporter, yeast two-hybrid, CPRG) is > 50.

Take “GAL4 AD-bnKCP1^1-80 fusion (pPC86-bnKCP1^1-80), expressed in MaV203 yeast (from UniProt Q84U09 1-80)”: the β-galactosidase activity (lacZ reporter, yeast two-hybrid, CPRG) in test [1] (setting [4]) was > 50.
